From PMC9770967, “Native holdup (nHU) to measure binding affinities from cell extracts” (Science Advances, 2022) come the findings set out here.

For experiment [1], the target named is SNX27_PDZ. Nature of the experiment: nHU-MS, SNX27_PDZ bait, total SH-SY5Y extracts. The format is binding, human. As for the experimental part: The empty His6-AviTag-MBP-TEV vector was used to produce biotinylated MBP for control experiments. Proteins were coexpressed with BirA biotin ligase (PET21a-BirA, Addgene, no. 20857) in Escherichia coli BL21(DE3) cells. At isopropyl-β-D-thiogalactopyranoside (IPTG) induction (1 mM IPTG at 18°C overnight), 50 μM biotin was added to the media. Harvested cells were lysed in a buffer containing 50 mM tris (pH 7.5), 150 to 300 mM NaCl, 50 μM biotin, 2 mM β-mercaptoethanol, cOmplete EDTA-free protease inhibitor cocktail (Roche, Basel, Switzerland), 1% Triton X-100, and trace amount of deoxyribonuclease, ribonuclease, and lysozyme. Lysates were frozen at −20°C before further purification steps. Lysates were sonicated and centrifuged for clarification. Expressed proteins were captured on in-house prepacked Ni-IDA (Protino Ni-IDA Resin, Macherey-Nagel, Duren, Germany) columns and were washed with at least 10 column volumes of cold wash buffer [50 mM tris (pH 7.5), 150 mM NaCl, and 2 mM β-mercaptoethanol] before elution with 250 mM imidazole. The Ni elution was collected directly on a preequilibrated amylose column (amylose high flow resin, New England Biolabs, Ipswich, MA). Amylose column was washed with 5 column volumes of cold wash buffer before fractionated elution in a buffer containing 25 mM Hepes (pH 7.5), 150 mM NaCl, 1 mM TCEP, 10% glycerol, 5 mM maltose, and cOmplete EDTA-free protease inhibitor cocktail. The concentration of proteins was determined by their ultraviolet absorption at 280 nm before aliquots were snap-frozen in liquid nitrogen and stored at −80°C.
For saturating streptavidin resin with biotinylated peptides or biotin, 50 μl of streptavidin resin was mixed with biotin or peptide at 40 to 60 μM concentration in 6 to 6.5 resin volume for 60 min. To saturate streptavidin resin with biotinylated proteins, 50 μl of streptavidin resin (Streptavidin Sepharose High Performance, Cytiva) was mixed with biotinylated MBP or MBP-PDZ at 40 to 50 μM concentration in 20× resin volume for 60 min. After saturation, resins were washed a single time [10 resin volume, holdup buffer: 50 mM tris (pH 7.5), 300 mM NaCl, and 1 mM TCEP, 0.22-μm filtered] and were depleted with biotin (10 resin volume, 10 min, holdup buffer supplemented with 100 μM biotin). Last, resins were washed two times (10 resin volume, holdup buffer).
For single-point nHU experiments carried out at ~10 μM bait concentration, 50 μl of saturated streptavidin resin was mixed with 200 μl of cell lysate (2 mg/ml). Titration experiments were carried out by mixing control and bait-saturated resin and keeping the total resin volume constant; e.g., ~5 μM bait concentration can be achieved by mixing 25 μl of bait-saturated streptavidin resin with 25 μl of control resin and 200 μl of cell lysate (2 mg/ml). Control and bait-saturated resins were prepared in larger amounts, and a serial dilution was prepared with these presaturated resins to achieve different resin ratios.
Unless specified elswhere, the nHU mixture was incubated at 4°C for 2 hours. After the incubation ended, the resin was separated from the supernatant by a brief centrifugation (15 s, 2000 g). Then, half of the supernatant was removed by pipetting without any delay to avoid any resin contamination; e.g., 100 μl of supernatant is collected if 200 μl of cell lysate was used as analyte. Alternatively, the supernatant can be centrifuged an additional time to clarify it further, removing any possible resin contamination. […]

The subject of experiment [2] is SNX27_PDZ. Nature of the experiment: AP-MS control pull-down on leftover resin, SNX27_PDZ bait, total SH-SY5Y extracts. As to conditions: n = 6. The format is binding, human. As for the experimental part: Leftover beads from nHU-MS experiments were washed three times immediately after the separation of the supernatant [10 resin volume in buffer containing 50 mM tris (pH 8.5), 150 mM NaCl, 1% Triton X-100, 10× cOmplete EDTA-free protease inhibitor cocktail, 2 mM EDTA, and 1 mM TCEP]. Then, the beads were washed two times [10 resin volume buffer containing 50 mM tris (pH 8.5), 150 mM NaCl, and 1 mM TCEP]. Last, captured protein was eluted from the resin in two steps, and the eluted fractions were pooled. For each elution, the beads were incubated for 30 min with three resin volume buffer containing 20 mM tris (pH 8.5), 100 mM NaCl, 500 μM TCEP, and 8 M urea. Between each step, the beads were separated by mild centrifugation, and the supernatant was removed by gentle pipetting.
The nHU samples were precipitated with trichloroacetic acid (TCA) 20% overnight at 4°C and centrifuged at 14,000 rpm for 10 min at 4°C. The protein pellets were washed twice with 1 ml of cold acetone and air-dried. […]
Samples were analyzed using an Ultimate 3000 nano-RSLC coupled in line via a nano-electrospray ionization source, with an LTQ-Orbitrap ELITE mass spectrometer (Thermo Fisher Scientific, San Jose, CA) or with the Orbitrap Exploris 480 mass spectrometer (Thermo Fisher Scientific, Bremen, Germany) equipped with a high field asymmetric ion mobility spectrometry (FAIMS) module. […]

A further experiment concerns full-length SNX27. Put plainly: nHU-WB titration, full-length SNX27 bait, total Jurkat extracts. As to conditions: partial activity model (Eq. 4). Format: binding. The method, then: The empty His6-AviTag-MBP-TEV vector was used to produce biotinylated MBP for control experiments. Proteins were coexpressed with BirA biotin ligase (PET21a-BirA, Addgene, no. 20857) in Escherichia coli BL21(DE3) cells. At isopropyl-β-D-thiogalactopyranoside (IPTG) induction (1 mM IPTG at 18°C overnight), 50 μM biotin was added to the media. […] Lysates were frozen at -20°C before further purification steps. Lysates were sonicated and centrifuged for clarification. Expressed proteins were captured on in-house prepacked Ni-IDA (Protino Ni-IDA Resin, Macherey-Nagel, Duren, Germany) columns and were washed with at least 10 column volumes of cold wash buffer [50 mM tris (pH 7.5), 150 mM NaCl, and 2 mM β-mercaptoethanol] before elution with 250 mM imidazole. The Ni elution was collected directly on a preequilibrated amylose column (amylose high flow resin, New England Biolabs, Ipswich, MA). […] The concentration of proteins was determined by their ultraviolet absorption at 280 nm before aliquots were snap-frozen in liquid nitrogen and stored at -80°C. […] To saturate streptavidin resin with biotinylated proteins, 50 μl of streptavidin resin (Streptavidin Sepharose High Performance, Cytiva) was mixed with biotinylated MBP or MBP-PDZ at 40 to 50 μM concentration in 20× resin volume for 60 min. […] Last, resins were washed two times (10 resin volume, holdup buffer). […]

B1: CNBP: Cellular nucleic acid-binding protein (protein, UniProt P62633 2-177, looked up)
CCHC-type zinc finger nucleic …: SSNECFKCGRSGHWARECPTGGGRGRGMRSRGRGGFTSDRGFQFVSSSLPDICYRCGESGHLAKDCDLQEDACYNCGRGGHIAKDCKEPKREREQCCYNCGKPGHLARDCDHADEQKCYSCGEFGHIQKDCTKVKCYRCGETGHVAINCSKTSEVNCYRCGESGHLARECTIEATA
On to B1, for which the pKapp_HU_not_filtered at SNX27_PDZ [1] (apparent, Eq. 2, not filtered for significance) worked out at 4.74. For the same molecule, on SNX27_PDZ [1] (apparent, Eq. 2, significant binders (1 σ, P < 0.05)), the pKapp_significant_binders_HU worked out at 4.74. Moreover, in the experiment with SNX27_PDZ [1] (n = 6), the BI_HU came out at 0.3538, the “FC_HU (log2 fold change)” value is listed as -0.63 and the Ratio_HU was determined as 0.6462. In the experiment with SNX27_PDZ [2], the “FC_AP (log2 fold change)” value is listed as -0.3792 and the Ratio_AP came out at 0.7689.

B2: full-length SLC16A1: monocarboxylate transporter 1, endogenous full-length prey (protein, UniProt P53985 1-500, looked up)
chain: MPPAVGGPVGYTPPDGGWGWAVVIGAFISIGFSYAFPKSITVFFKEIEGIFHATTSEVSWISSIMLAVMYGGGPISSILVNKYGSRIVMIVGGCLSGCGLIAASFCNTVQQLYVCIGVIGGLGLAFNLNPALTMIGKYFYKRRPLANGLAMAGSPVFLCTLAPLNQVFFGIFGWRGSFLILGGLLLNCCVAGALMRPIGPKPTKAGKDKSKASLEKAGKSGVKKDLHDANTDLIGRHPKQEKRSVFQTINQFLDLTLFTHRGFLLYLSGNVIMFFGLFAPLVFLSSYGKSQHYSSEKSAFLLSILAFVDMVARPSMGLVANTKPIRPRIQYFFAASVVANGVCHMLAPLSTTYVGFCVYAGFFGFAFGWLSSVLFETLMDLVGPQRFSSAVGLVTIVECCPVLLGPPLLGRLNDMYGDYKYTYWACGVVLIISGIYLFIGMGINYRLLAKEQKANEQKKESKEEETSIDVAGKPNEVTKAAESPDQKDTDGGPKEEESPV
modifications: full-length
notes: monocarboxylate transporter 1, endogenous full-length prey
For the molecule B2, the “f (active fraction)” value in the experiment on full-length SNX27 is given as 0.9.
